Publication PMC10752582 (eLife, 2023)

B1: 6xHis-BRAF kinase domain, wild type (amino acids 442-723 with 16 solubilizing mutations) (domain or fragment, UniProt P15056 442-723, looked up)
chain: GRRDSSDDWEIPDGQITVGQRIGSGSFGTVYKGKWHGDVAVKMLNVTAPTPQQLQAFKNEVGVLRKTRHVNILLFMGYSTKPQLAIVTQWCEGSSLYHHLHASETKFEMKKLIDIARQTARGMDYLHAKSIIHRDLKSNNIFLHEDNTVKIGDFGLATVKSRWSGSHQFEQLSGSILWMAPEVIRMQDSNPYSFQSDVYAFGIVLYELMTGQLPYSNINNRDQIIEMVGRGSLSPDLSKVRSNCPKRMKRLMAECLKKKRDERPSFPRILAEIEELARELSG
modifications: biotin (Sulfo-NHS-biotin, 50 molar excess) in the pull-downs on streptavidin beads
notes: BRAF kinase domain, amino acids 442-723, with 16 solubilizing mutations; Designed as in Cope et al., 2020; Amine-coupled to a carboxyl sensor in OpenSPR, biotinylated in pull-downs; also called KD; BRAF-KD; source: E. coli BL21 codon +, purified (cobalt resin, SEC); not shown: 6xHis, N-terminal, kept
B2: BRAF-CRD only protein NT5 (residues 234-288) (domain or fragment, UniProt P15056 234-288, looked up)
chain: THNFVRKTFFTLAFCDFCRKLLFQGFRCQTCGYKFHQRCSTEVPLMCVNYDQLDL
notes: BRAF residues 234-288 (CRD only); also called BRAF NT5; source: E. coli BL21 codon +, purified

How the values were obtained:
Test in all cases: SPR; OpenSPR; BRAF-KD WT or D594G amine-coupled to a carboxyl sensor (~6000 RUs), BRAF NTs flowed at 30 µL/min; 20 mM HEPES pH 7.4, 150 mM NaCl, 5% glycerol, 0.005% Tween-20, 1% BSA; 1:1 fit
Details in all cases: both partners purified
[1] = biological target: T1, untagged BRAF NT1 (His/MBP-tag removed by TEV protease) (UniProt P15056 1-288)
T1 construct: BRAF residues 1-288 (BSR, RBD and CRD); also called untagged NT1; source: E. coli BL21 codon +, purified, tag cleaved with TEV protease; not shown: 6xHis, N-terminal, cleaved; MBP, N-terminal, cleaved

[2] = biological target: T2, His/MBP-BRAF NT1 (aa 1-288) (UniProt P15056 1-288)
T2 construct: BRAF residues 1-288 (BSR, RBD and CRD); Cloned in the pET28-MBP vector; also called His/MBP-NT1; source: E. coli BL21 codon +, purified (Ni-NTA, SEC); not shown: 6xHis, N-terminal, kept; MBP, N-terminal, kept

[3] = biological target: B1

Kd [1] [nM] | Kd [2] [nM] | Kd [3] [nM] | Binder
13 | 11 | – | B1
– | – | > 6000 | B2
